In article PMC5483954, “Different specificities of two aldehyde dehydrogenases from Saccharomyces cerevisiae var. boulardii” (Bioscience Reports, 2017):

Tests used:
[1] = target: Saccharomyces cerevisiae var. boulardii mitochondrial aldehyde dehydrogenase Ald4p (Saccharomyces cerevisiae var. boulardii (NCYC 3264)) (UniProt P46367); experiment: SEC; Sephacryl S-300, buffer G (50 mM Tris/HCl, 17 mM Tris-base, 150 mM NaCl, pH 7.4), 1 ml/min; 200 ul of 60 uM protein by the methods (legend: Ald4p ~20 uM, Ald6p ~60 uM); mass from calibration with standard proteins
[2] = target: the molecule itself; experiment: cross-linking; BS3 (50-800 uM) with 15 uM protein in 100 mM sodium phosphate pH 7.4, 30 C, 35 min; products on SDS/PAGE (10% gel)
[3] = target: the molecule itself; experiment: SEC; Sephacryl S-300, buffer G (50 mM Tris/HCl, 17 mM Tris-base, 150 mM NaCl, pH 7.4), 1 ml/min; 200 ul of 60 uM protein by the methods (legend: Ald4p ~20 uM, Ald6p ~60 uM); mass from calibration with standard proteins
[4] = target: the molecule itself; experiment: SDS/PAGE of the untreated purified protein (SDS- and heat-resistant oligomers); purified protein without cross-linker on SDS/PAGE (10% gel); band not reduced by additional DTT (2 mM)

| Molecule | stoichiometry N [1] | stoichiometry N [2] | stoichiometry N [3] | stoichiometry N [4] |
| --- | --- | --- | --- | --- |
| Saccharomyces cerevisiae var. boulardii mitochondrial aldehyde dehydrogenase Ald4p (from UniProt P46367 25-519) (enzyme) | 3 | – | – | – |
| Saccharomyces cerevisiae var. boulardii cytosolic aldehyde dehydrogenase Ald6p (wild-type) (enzyme, UniProt P54115 1-500, looked up, Ald6p, cytosolic aldehyde dehydrogenase of S. cerevisiae var. boulardii NCYC 3264; differs from the S. cerevisiae S288c protein by valine for isoleucine at position 163; printed mass 54.4 kDa; Removal of the tag is not mentioned; also called cytosolic Ald6p; wild-type Ald6p; source: E. coli Rosetta (DE3), purified (cobalt agarose, dialysis)) MTKLHFDTAEPVKITLPNGLTYEQPTGLFINNKFMKAQDGKTYPVEDPSTENTVCEVSSATTEDVEYAIECADRAFHDTEWATQDPRERGRLLSKLADELESQIDLVSSIEALDNGKTLALARGDVTIAINCLRDAAAYADKVNGRTINTGDGYMNFTTLEPVGVCGQIIPWNFPIMMLAWKIAPALAMGNVCILKPAAVTPLNALYFASLCKKVGIPAGVVNIVPGPGRTVGAALTNDPRIRKLAFTGSTEVGKSVAVDSSESNLKKITLELGGKSAHLVFDDANIKKTLPNLVNGIFKNAGQICSSGSRIYVQEGIYDELLAAFKAYLETEIKVGNPFDKANFQGAITNRQQFDTIMNYIDIGKKEGAKILTGGEKVGDKGYFIRPTVFYDVNEDMRIVKEEIFGPVVTVAKFKTLEEGVEMANSSEFGLGSGIETESLSTGLKVAKMLKAGTVWINTYNDFDSRVPFGGVKQSGYGREMGEEVYHAYTEVKAVRIKL | – | 2 | 4 | ~4 |
